In patent US20230134571A1 (INTERNATIONAL AIDS VACCINE INITIATIVE, published 2023):
Where a chain is given by its changes, count along the chain named.

How the values were obtained:
Assay in all cases: cell-based or functional assay
[1] = target: HIV Env of isolate 89-F1_2_25 (clade CD) (HIV)
[2] = target: HIV Env of isolate Q259.d2.17 (clade A) (HIV)
[3] = target: HIV Env of isolate BJOX015000.11.5 (clade AE) (HIV)
[4] = target: HIV Env of isolate T211-9 (clade AG) (HIV)
[5] = target: HIV Env of isolate 1012_11_TC21_3257 (clade B) (HIV)
[6] = target: HIV Env of isolate TRJO4551.58 (clade B) (HIV)
[7] = target: HIV Env of isolate CNE17 (clade BC) (HIV)
[8] = target: HIV Env of isolate 1394C9G1(Rev-) (clade C) (HIV)
[9] = target: HIV Env of isolate Du422.1 (clade C) (HIV)
HIV Env, isolate TRO.11 = HIV Env, isolate TRO.11 (HIV)
[10] = target: HIV Env, isolate 1394C9G1(Rev-) (HIV)
[11] = target: HIV Env, isolate Ce2060_G9 (HIV)
[12] = target: HIV Env, isolate Du156.12 (HIV)
[13] = target: HIV Env, isolate ZM233M.PB6 (HIV)
[14] = target: HIV Env, isolate 6480.v4.c25 (HIV)
HIV Env, isolate 6535.3 = HIV Env, isolate 6535.3 (HIV)
[15] = target: HIV Env, isolate 3016.v5.c45 (HIV)
[16] = target: HIV Env, isolate P0402_C2_11 (HIV)
[17] = target: HIV Env, isolate X1254_C3 (HIV)
HIV Env, isolate 3514597 = HIV Env, isolate 3514597 (HIV)
[18] = target: HIV Env, isolate 2768732_C5_16 (HIV)
[19] = target: HIV Env, isolate 19707346_E8_C6 (HIV)
[20] = target: HIV Env, isolate 541-F1_A7_2 (HIV)
[21] = target: HIV Env, isolate 556_F2_3_25 (HIV)
[22] = target: HIV Env, isolate TRP290.2.00_23_6 (HIV)
[23] = target: HIV Env, isolate TRP307.2.00_24_1 (HIV)
[24] = target: HIV Env, isolate So431_C1_1 (HIV)
[25] = target: HIV Env, isolate CT072_56_7 (HIV)
[26] = target: HIV Env, isolate CA240_A5.5 (HIV)
[27] = target: HIV Env, isolate CAP308.2.00_E11.35 (HIV)
[28] = target: HIV Env, isolate 20358510.01 (HIV)
[29] = target: HIV Env, isolate B005018-8_F6.3 (HIV)
[30] = target: HIV Env, isolate SO032_A2.8-1 (HIV)
[31] = target: HIV Env, isolate 6022.v7.c24 (HIV)
MuLV (Neg. Control) = target: MuLV (Neg. Control)
[32] = target: HIV Env, isolate ZM249M.PL1 (HIV)
[33] = target: HIV Env, isolate ZM106F.PB9 (HIV)
[34] = target: HIV Env, isolate 0984.v2.c2 (HIV)
[35] = target: HIV Env, isolate Ce703010131_1E2 (HIV)

B1: ePGDM13 (antibody, V domains shown)
VH: QAQLVQSGPEVRKPGTSVKVSCKNPGNTLTTYDLHWVRQVPGQGLQWMGWISHEGDKKVIVERFKAKVTIDWDRSTNTAYLQLSGLTSEDTAVYYCAKGSKHRLRDYALYDEDGALNWAVDVDYLANLEFWGQGTAVTVSS
VL: DIVLTQSPLSLSVTPGESASISCKSSHSLQHGDRNNYLAWYVQKPGRSPQLLLDLASERASGVPDRFSGSGSEKDFTLKISRVETEDVGTYYCMQGRESPWTFGQGTKVDIK
IC50 (µg/ml) with constrains [1]: 0.001 µg/mL
IC50 (µg/ml) with constrains [2]: 0.037 µg/mL
IC80 (µg/ml) with constrains [2]: 0.15 µg/mL
IC50 (µg/ml) with constrains [3]: 1.72 µg/mL
IC80 (µg/ml) with constrains [3]: 6.86 µg/mL
IC50 (µg/ml) with constrains [4]: 0.028 µg/mL
IC80 (µg/ml) with constrains [4]: 0.113 µg/mL
IC50 (µg/ml) with constrains [5]: 0.065 µg/mL
IC50 (µg/ml) with constrains [6]: > 100 µg/mL
IC50 (µg/ml) with constrains [7]: 0.008 µg/mL
IC50 (µg/ml) with constrains [8]: 0.003 µg/mL
IC50 (µg/ml) with constrains [9]: 27.5 µg/mL

B2: ePGDM13 (antibody, V domains shown)
VH: B1 VH
VL: B1 VL
IC80 (µg/ml) with constrains (HIV Env, isolate TRO.11): 1.41 µg/mL
IC80 (µg/ml) with constrains [10]: 0.011 µg/mL
IC80 (µg/ml) with constrains [11]: 0.071 µg/mL
IC80 (µg/ml) with constrains [12]: 0.026 µg/mL
IC80 (µg/ml) with constrains [13]: 0.006 µg/mL
IC80 (µg/ml) with constrains [14]: > 100 µg/mL
IC80 (µg/ml) with constrains (HIV Env, isolate 6535.3): > 100 µg/mL
IC80 (µg/ml) with constrains [15]: > 100 µg/mL
IC80 (µg/ml) with constrains [16]: 0.006 µg/mL
IC80 (µg/ml) with constrains [17]: 2.07 µg/mL

B3: ePGDM9 (antibody, V domains shown)
VH: B1 VH
VL: B1 VL with H27Q, Q30I, L53I, E73R
IC80 (µg/ml) with constrains (HIV Env, isolate TRO.11): 0.652 µg/mL
IC80 (µg/ml) with constrains [10]: 0.005 µg/mL
IC80 (µg/ml) with constrains [11]: 0.538 µg/mL
IC80 (µg/ml) with constrains [12]: 0.016 µg/mL
IC80 (µg/ml) with constrains [13]: 0.007 µg/mL
IC80 (µg/ml) with constrains [14]: > 100 µg/mL
IC80 (µg/ml) with constrains (HIV Env, isolate 6535.3): > 100 µg/mL
IC80 (µg/ml) with constrains [15]: > 100 µg/mL
IC80 (µg/ml) with constrains [16]: 0.003 µg/mL
IC80 (µg/ml) with constrains [17]: 0.71 µg/mL
IC50 (HIV Env, isolate 3514597): 0.003 µg/mL
IC80 (HIV Env, isolate 3514597): 0.011 µg/mL
IC50 [18]: 0.016 µg/mL
IC80 [18]: 0.114 µg/mL
IC50 [19]: 0.005 µg/mL
IC80 [19]: 0.014 µg/mL
IC50 [20]: 0.005 µg/mL
IC80 [20]: 0.02 µg/mL
IC50 [21]: > 50 µg/mL
IC80 [21]: > 50 µg/mL
IC50 [22]: 0.012 µg/mL
IC80 [22]: 0.06 µg/mL
IC50 [23]: > 50 µg/mL
IC80 [23]: > 50 µg/mL
IC50 [24]: > 50 µg/mL
IC80 [24]: > 50 µg/mL
IC50 [25]: 0.002 µg/mL
IC80 [25]: 1.23 µg/mL
IC50 [26]: > 50 µg/mL
IC80 [26]: > 50 µg/mL
IC50 [27]: 0.001 µg/mL
IC80 [27]: 0.004 µg/mL
IC50 [28]: 0.004 µg/mL
IC80 [28]: 0.017 µg/mL
IC50 [29]: < 0.0006 µg/mL
IC80 [29]: 0.003 µg/mL
IC50 [30]: > 50 µg/mL
IC80 [30]: > 50 µg/mL
IC50 [31]: > 50 µg/mL
IC80 [31]: > 50 µg/mL
IC50 (MuLV (Neg. Control)): > 50 µg/mL
IC80 (MuLV (Neg. Control)): > 50 µg/mL
IC50 [32]: 0.004 µg/mL
IC80 [32]: 0.05 µg/mL
IC50 [33]: 0.007 µg/mL
IC80 [33]: 0.024 µg/mL
IC50 [34]: 2.81 µg/mL
IC80 [34]: > 50 µg/mL
IC50 [35]: < 0.0006 µg/mL
IC80 [35]: 0.004 µg/mL

B4: PGDM1400 (antibody, V domains shown)
VH: B1 VH with A2V, Q3H, V5T, N24A, T30K, Q39S, E89G, E112D, A126S
VL: B1 VL with I2F, L9H, Q30I, L53I, D54Y, E58S, E73D
IC50 (µg/ml) with constrains [1]: 0.003 µg/mL
IC50 (µg/ml) with constrains [2]: 0.068 µg/mL
IC80 (µg/ml) with constrains [2]: 0.271 µg/mL
IC50 (µg/ml) with constrains [3]: 1.05 µg/mL
IC80 (µg/ml) with constrains [3]: 4.21 µg/mL
IC50 (µg/ml) with constrains [4]: 0.058 µg/mL
IC80 (µg/ml) with constrains [4]: 0.234 µg/mL
IC50 (µg/ml) with constrains [5]: 0.076 µg/mL
IC50 (µg/ml) with constrains [6]: > 100 µg/mL
IC50 (µg/ml) with constrains [7]: 0.005 µg/mL
IC50 (µg/ml) with constrains [8]: 0.003 µg/mL
IC50 (µg/ml) with constrains [9]: 33.4 µg/mL

B5: ePGDM5 (antibody, V domains shown)
VH: B1 VH
VL: B1 VL with I2F, S26D, L53I, E73R, S81D, T85A
IC80 (µg/ml) with constrains (HIV Env, isolate TRO.11): 1.26 µg/mL
IC80 (µg/ml) with constrains [10]: 0.009 µg/mL
IC80 (µg/ml) with constrains [11]: 0.044 µg/mL
IC80 (µg/ml) with constrains [12]: 0.026 µg/mL
IC80 (µg/ml) with constrains [13]: 0.007 µg/mL
IC80 (µg/ml) with constrains [14]: > 100 µg/mL
IC80 (µg/ml) with constrains (HIV Env, isolate 6535.3): > 100 µg/mL
IC80 (µg/ml) with constrains [15]: > 100 µg/mL
IC80 (µg/ml) with constrains [16]: 0.015 µg/mL
IC80 (µg/ml) with constrains [17]: 0.869 µg/mL

B6: ePGDM5 (antibody, V domains shown)
VH: B1 VH
VL: B1 VL with I2F, S26D, L53I, E73R, S81D, T85A
IC50 (µg/ml) with constrains [1]: 0.001 µg/mL
IC50 (µg/ml) with constrains [2]: 0.013 µg/mL
IC80 (µg/ml) with constrains [2]: 0.051 µg/mL
IC50 (µg/ml) with constrains [3]: 1.1 µg/mL
IC80 (µg/ml) with constrains [3]: 4.39 µg/mL
IC50 (µg/ml) with constrains [4]: 0.025 µg/mL
IC80 (µg/ml) with constrains [4]: 0.099 µg/mL
IC50 (µg/ml) with constrains [5]: 0.076 µg/mL
IC50 (µg/ml) with constrains [6]: > 100 µg/mL
IC50 (µg/ml) with constrains [7]: 0.007 µg/mL
IC50 (µg/ml) with constrains [8]: 0.002 µg/mL
IC50 (µg/ml) with constrains [9]: 8.64 µg/mL

B7: PGDM1400 (antibody, V domains shown)
VH: B1 VH with A2V, Q3H, V5T, N24A, T30K, Q39S, E89G, E112D, A126S
VL: B1 VL with I2F, L9H, Q30I, L53I, D54Y, E58S, E73D
IC80 (µg/ml) with constrains (HIV Env, isolate TRO.11): 0.823 µg/mL
IC80 (µg/ml) with constrains [10]: 0.012 µg/mL
IC80 (µg/ml) with constrains [11]: 0.099 µg/mL
IC80 (µg/ml) with constrains [12]: 0.025 µg/mL
IC80 (µg/ml) with constrains [13]: 0.007 µg/mL
IC80 (µg/ml) with constrains [14]: > 100 µg/mL
IC80 (µg/ml) with constrains (HIV Env, isolate 6535.3): > 100 µg/mL
IC80 (µg/ml) with constrains [15]: > 100 µg/mL
IC80 (µg/ml) with constrains [16]: 0.027 µg/mL
IC80 (µg/ml) with constrains [17]: > 100 µg/mL

B8: ePGDM9 (antibody, V domains shown)
VH: B1 VH
VL: B1 VL with H27Q, Q30I, L53I, E73R
IC50 (µg/ml) with constrains [1]: 0.001 µg/mL
IC50 (µg/ml) with constrains [2]: 0.012 µg/mL
IC80 (µg/ml) with constrains [2]: 0.048 µg/mL
IC50 (µg/ml) with constrains [3]: 0.958 µg/mL
IC80 (µg/ml) with constrains [3]: 3.83 µg/mL
IC50 (µg/ml) with constrains [4]: 0.02 µg/mL
IC80 (µg/ml) with constrains [4]: 0.081 µg/mL
IC50 (µg/ml) with constrains [5]: 0.042 µg/mL
IC50 (µg/ml) with constrains [6]: > 100 µg/mL
IC50 (µg/ml) with constrains [7]: 0.003 µg/mL
IC50 (µg/ml) with constrains [8]: 0.001 µg/mL
IC50 (µg/ml) with constrains [9]: 13.3 µg/mL
